The values that follow come from publication PMC6383945, “Elk1 affects katanin and spastin proteins via differential transcriptional and post-transcriptional regulations”.

First the molecules themselves.
T1: Elk1-db (ETS DNA-binding domain) (Homo sapiens, UniProt P19419 1-96)
T1 sequence: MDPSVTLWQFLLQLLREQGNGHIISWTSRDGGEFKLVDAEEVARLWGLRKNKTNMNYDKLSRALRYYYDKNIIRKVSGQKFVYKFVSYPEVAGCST

B1: KATNA1 UTR1_WT (+113/+122) (dsDNA)
DNA 1: CGAGGTCGTCCCCGGCACCGGAAGTGACCCTGGCGGGTTTGT
DNA 2: ACAAACCCGCCAGGGTCACTTCCGGTGCCGGGGACGACCTCG
B2: KATNA1 Promoter_Mut (dsDNA)
DNA 1: AGGGTGGAGATTGAGACCAAGAAGGACCCTGTGCAGTACATAT
DNA 2: ATATGTACTGCACAGGGTCCTTCTTGGTCTCAATCTCCACCCT
B3: KATNA1 UTR1_Mut (dsDNA)
DNA 1: CGAGGTCGTCCCCGGTGTTAAGGATGACCCTGGCGGGTTTGT
DNA 2: ACAAACCCGCCAGGGTCATCCTTAACACCGGGGACGACCTCG
B4: KATNA1 UTR2_WT (+253/+262) (dsDNA)
DNA 1: GACTGGGTCAGGCCCTCCTTCCTCGCTGCCGGGATCTCCACTC
DNA 2: GAGTGGAGATCCCGGCAGCGAGGAAGGAGGGCCTGACCCAGTC
B5: KATNA1 UTR2_Mut (dsDNA)
DNA 1: GACTGGGTCAGGCCCTCTCCTTCTATTGCCGGGATCTCCACTC
DNA 2: GAGTGGAGATCCCGGCAATAGAAGGAGAGGGCCTGACCCAGTC
B6: KATNA1 Promoter_WT (-428/-419) (dsDNA)
DNA 1: AGGGTGGAGATTGAGACTGGAGGAAGCCCTGTGCAGTACATAT
DNA 2: ATATGTACTGCACAGGGCTTCCTCCAGTCTCAATCTCCACCCT

For the data set, the target named is T1, Elk1-db (ETS DNA-binding domain). Briefly: EMSA; 10 mM Tris pH 7.5, 50 mM KCl, 1 mM DTT, 1 ug poly(dI-dC), 5% glycerol, 1 mM EDTA, 0.3% BSA, protease inhibitors; 20 fmol probe, 300 ng Elk1-db; 20 min room temperature; 6% native PAGE in 0.5X TBE at 4 C. As to conditions: protein: recombinant; tags: 6xHis; label: 3' biotin on both strands; blunt before labelling.
Take B1: the binding result is given as “binds”.

For B2, the binding result is “no binding”.

On to B3, for which the binding result was “no binding”.

Take B4: the binding result is reported as “no binding”.

With B5, the binding result was “no binding”.

For the molecule B6, the binding result is listed as “no binding”.
